# In paper PMC10283433:
# How the values were obtained:
# [1] = target: NXT007 in the dKiHv14 format (anti-FIXa/FX bispecific humanized IgG4, kappa/lambda) (human); assay: SPR
# [2] = target: anti-FX antibodies with the V1 or V2 mutation pair; assay: SPR
substance,measurement,setting,value
recombinant human FcRn (from UniProt P55899 24-365) (receptor),"FcRn binding ability after acid treatment, relative to the initial sample",[1],80%
"human FX (Enzyme Research Laboratories, HFX 1010) (natural protein)",fold increase in KD against the parent,[2],1.3 to 1.4 times
